# According to EP4703474A1, “ANTI-LRRC15 ANTIBODY” (priority 2023, dated 2024):
# Where a chain is given by its changes, count along the chain named.
# B1: H02L01-PBD (conjugate)
# heavy: EVQLVESGGGLVQPGGSLRLSCAASGFTFRDYYMAWVRQAPGKGLEWVSSIGFDESRTYYADSVKGRFTISRDDSKNTLYLQMNSLRAEDTAVYYCARHGVSYYSGDNWFAYWGQGTLVTVSSASTKGPSVFPLAPSSKSTSGGTAALGCLVKDYFPEPVTVSWNSGALTSGVHTFPAVLQSSGLYSLSSVVTVPSSSLGTQTYICNVNHKPSNTKVDKKVEPKSCDKTHTCPPCPAPEAAGGPSVFLFPPKPKDTLMISRTPEVTCVVVDVSHEDPEVKFNWYVDGVEVHNAKTKPREEQYNSTYRVVSVLTVLHQDWLNGKEYKCKVSNKALAAPIEKTISKAKGQPREPQVYTLPPSREEMTKNQVSLTCLVKGFYPSDIAVEWESNGQPENNYKTTPPVLDSDGSFFLYSKLTVDKSRWQQGNVFSCSVMHEALHNHYTQKSLSLSPGK
# light: DIQMTQSPSSLSASVGDRVTITCKSSQGLLYSGDQKNYLAWYQQKPGKAPKLLIYWASTRQSGVPSRFSGSGSGTDFTLTISSLQPEDFATYYCQQYYDPPYTFGQGTKVEIKRTVAAPSVFIFPPSDEQLKSGTASVVCLLNNFYPREAKVQWKVDNALQSGNSQESVTEQDSKDSTYSLSSTLTLSKADYEKHKVYACEVTHQGLSSPVTKSFNRGEC
# B2: H02L01-V2-PBD (conjugate)
# heavy: B1 heavy with Y103R
# light: B1 light
# B3: H02L01-V1-PBD (conjugate)
# heavy: B1 heavy with Y103K
# light: B1 light
# What was measured:
# [1] = test system: LRRC15-positive human melanoma cell line Hs294T; experiment: In vitro cell growth inhibitory activity (CellTiter-Glo 2.0); assay type: cell-based; details: 20 ng/mL TGFβ1-containing medium, 0.0002 to 1.5 µg/mL, 6 days of culture, compared to control hIgG-PBD
# Protocol: (§1) LRRC15-positive human osteosarcoma cell line HuO9 (JCRB) was seeded in 10% FBS-containing RPMI medium at 5 x 10^3 cells/50 μL/well, LRRC15-positive human melanoma cell line Hs294T was seeded in 10% FBS and 20 ng/mL TGFβ1-containing RPMI medium at 5 x 10^3 cells/50 μL/well, or, as a negative control, LRRC15-negative HEK293α was seeded in 10% FBS-containing RPMI medium at 2 x 10^3 cells/50 μL/well in a 96-well plate, and cultured overnight under conditions of 37°C and 5% CO2. The next day, the three types of hR024-drug conjugates (clone names of […]-PBD, […]-V1-PBD, and […]-V2-PBD) prepared in Example 5 and the control hIgG-PBD were diluted at a common ratio of 3 to a final concentration of 0.0002 (μg/mL) from 1.5 (μg/mL) and added. After 6 days of culture, the number of viable cells was measured by quantification of ATP using CellTiter-Glo 2.0 Assay (Promega).
# [2] = test system: LRRC15-positive human osteosarcoma cell line HuO9; experiment: as above; assay type: cell-based; details: 0.0002 to 1.5 µg/mL, 6 days of culture, compared to control hIgG-PBD
# Protocol: as §1
# LRRC15-negative HEK293α = experiment: In vitro cell growth inhibitory activity (CellTiter-Glo 2.0), negative control cells; assay type: cell-based; details: 0.0002 to 1.5 µg/mL, 6 days of culture, compared to control hIgG-PBD
# Protocol: as §1
# [3] = test system: LRRC15-positive human osteosarcoma cell line HuO9; experiment: In vivo antitumor effect, HuO9 subcutaneous transplant model; details: tail vein, on Day 10, female SCID mice
# Protocol: The antitumor effects of the antibody-drug conjugates were evaluated by using animal models in which cells of the human tumor cell line had been transplanted into immunodeficient mice. 4 to 6 Week-old SCID mice (CB17/Icr-Prkdc[scid]/CrlCrlj, Jackson Laboratory Japan, Inc.) were habituated for 3 days or more under SPF conditions before experimental use. The mice were fed with sterilized solid feed (FR-2, Funabashi Farms Co., Ltd.) and given sterilized tap water (prepared by adding a solution of 5 to 15 ppm sodium hypochlorite). The major and minor diameters of the transplanted tumors were measured twice a week with an electronic digital caliper ([…] Corporation), and the estimated tumor volume was calculated using the following formula. Estimated tumor volume (mm^3) = 1/2 × major diameter (mm) × [minor diameter (mm)]^2 All antibody-drug conjugates were diluted with ABS and administered into the tail vein at doses shown in each Example. In addition, ABS (vehicle) or control hIgG-PBD prepared in Reference Example 4 was administered as the control group, in a similar manner. 5 to 6 Mice were used per group in the experiment. Based on publicly known information, LRRC15-positive human osteosarcoma cell line HuO9 (JCRB) was suspended in Matrigel (Corning Incorporated), 5.0 × 10^6 cells were subcutaneously transplanted into the right flank of female SCID mice (Day 0), and random grouping was performed on Day 10. On the day of grouping, the vehicle, the antibody-drug conjugates […]-PBD, […]-V1-PBD, and […]-V2-PBD prepared in Example 5, or the control hIgG-PBD prepared in Reference Example 4 was administered at a dose of 0.4 mg/kg, and the huM25-MMAE prepared in Reference Example 5 was administered at a dose of 0.4 mg/kg or 3.6 mg/kg into the tail vein. The abscissa indicates the number of days, and the ordinate indicates estimated tumor volume, and the error bars indicate SEM values. […] The antitumor effects of the antibody-drug conjugates were evaluated by using animal models in which cells of a human tumor cell line had been transplanted into immunodeficient mice, or cells of a mouse tumor cell line had been transplanted into immunocompetent mice. 4 to 6 Week-old SCID mice (CB17/Icr-Prkdc[scid]/CrlCrlj, Jackson Laboratory Japan, Inc.), NSG mice (NOD.Cg-Prkdcscid Il2rgtm1Wjl/SzJ, Jackson Laboratory Japan, Inc.), or B6J mice (C57BL/6J, Jackson Laboratory Japan, Inc.) were habituated for 3 days or more under SPF conditions before experimental use. The mice were fed with sterilized solid feed and given sterilized tap water. The major and minor diameters of the transplanted tumors were measured twice a week with an electronic digital caliper (Mitutoyo Corporation), and the estimated tumor volume was calculated using the following formula. Estimated tumor volume (mm^3) = 1/2 × major diameter (mm) × [minor diameter (mm)]^2 All antibody-drug conjugates were diluted with ABS and administered into the tail vein at doses shown in each Example. In addition, ABS (vehicle) or control hIgG-PBD prepared in Reference Example 4 was administered as the control group, in a similar manner. 5 to 6 Mice were used per group in the experiment. Based on publicly known information, LRRC15-positive human osteosarcoma cell line HuO9 (JCRB) was suspended in Matrigel (Corning Incorporated), 5.0 × 10^6 cells were subcutaneously transplanted into the right flank of female SCID mice (Day 0), and random grouping was performed on Day 10. On the day of grouping, a vehicle, the antibody-drug conjugate […]-V1-PBD or […]-V2-PBD prepared in Example 5, or huM25-PBD prepared in Reference Example 6-2 was administered into the tail vein at a dose of 0.3 mg/kg. The abscissa indicates the number of days, and the ordinate indicates estimated tumor volume, and the error bars indicate SEM values.
# [4] = 0.4 mg/kg, huM25-MMAE at 0.4 mg/kg or 3.6 mg/kg
# [5] = 0.3 mg/kg, huM25-PBD at the same dose
Molecule,inhibitory activity against cell growth [1],inhibitory activity against cell growth [2],inhibitory activity against cell growth (LRRC15-negative HEK293α),"antitumor effect (estimated tumor volume) [3, 4]","antitumor effect (estimated tumor volume) [3, 5]",tumor regression ([3]; 0.4 mg/kg)
B1,inhibited tumor cell proliferation when added at a lower concentration,inhibited tumor cell proliferation when added at a lower concentration,growth inhibitory activity equivalent to that of the control hIgG-PBD,"antitumor activity higher than that of the vehicle, the control hIgG-PBD, and huM25-MMAE",,
B2,inhibited tumor cell proliferation when added at a lower concentration,inhibited tumor cell proliferation when added at a lower concentration,growth inhibitory activity equivalent to that of the control hIgG-PBD,"antitumor activity higher than that of the vehicle, the control hIgG-PBD, and huM25-MMAE",antitumor activity higher than that of the vehicle and huM25-PBD,lead to tumor regression
B3,inhibited tumor cell proliferation when added at a lower concentration,inhibited tumor cell proliferation when added at a lower concentration,growth inhibitory activity equivalent to that of the control hIgG-PBD,"antitumor activity higher than that of the vehicle, the control hIgG-PBD, and huM25-MMAE",antitumor activity higher than that of the vehicle and huM25-PBD,lead to tumor regression
